Measured values taken from patent US20260021193A1 (IMMUNOME, published 2026).

Key:
[1] = biological target: T1, Hu/Cy/Rh ROR1 - His (Human/Cyno/Rhesus, UniProt Q01973 30-403, limits assumed); test: SPR (Carterra), cell 'Kinetics (KD)' in the head and in the left column of the binning table, antigen Hu/Cy/Rh ROR1-His; no unit stands on the sheet, M is taken from Table 3, where the same KD values of the other four antibodies stand under KD (M)
T1 construct: Purified His-tagged ROR1 protein used in SPR; also called Human/Cyno/Rhesus ROR-1; not shown: His tag

[2] = biological target: T2, human ROR-1 endogenously expressed on JeKo-1 and MDA-MB-468 cells (human, UniProt Q01973 30-937); test: cell-based or functional assay
[3] = biological target: T1, Hu/Cy/Rh ROR1 - His; test: SPR, purified Hu/Cy/Rh ROR1-His
[4] = biological target: T2, human ROR-1 endogenously expressed on …; test: flow cytometry: titration of the antibody on ROR-1 positive JeKo-1 cells, secondary antibody staining, Net MFI
[5] = biological target: T2, human ROR-1 endogenously expressed on …; test: as above; remark: listed apart in the source
Description: Cells were washed, stained with secondary antibody and cell binding saturation was detected by flow cytometry and reported as mean fluorescent intensity (MFI).
A cell binding saturation assay was developed to evaluate how well the anti-ROR-1 antibodies developed in Example 22 bound to endogenously expressed extracellular ROR-1 protein on cell lines. […] Cells were then washed and subjected to secondary antibody staining and detection by flow cytometry. Mean fluorescence (MFI) was determined by analysis on cytometer software. […] (See FIGS. 27A-27B).

[6] = biological target: T2, human ROR-1 endogenously expressed on …; test: cell-based or functional assay; remark: listed apart in the source
[7] = biological target: T3, Mouse ROR1 - His (Mouse, UniProt Q9Z139 30-403, limits assumed); test: SPR, purified Mouse ROR1-His
T3 construct: Purified His-tagged mouse ROR1 protein used in SPR; not shown: His tag

[8] = biological target: T2, human ROR-1 endogenously expressed on …; test: flow cytometry (cellular binning): titration of the antibody on MDA-MB-468 cells, fluorescently labeled secondary antibody, % Top MFI
Description: (§1) Next, the anti-ROR-1 antibodies were fluorescently labeled with a secondary antibody.
(§2) In Step 2, a fluorescently labeled secondary antibody recognizing the novel antibodies was incubated with the samples.

[9] = biological target: T2, human ROR-1 endogenously expressed on …; test: as above; remark: listed apart in the source
Description: as §1, §2

[10] = biological target: T2, human ROR-1 endogenously expressed on …; test: flow cytometry competition (cellular binning) on MDA-MB-468 cells: cells coated with titrated ATX-P-885, then a saturating dose of the labeled competitor Dy650-UC961, whose signal is plotted in % Top MFI
Description: as §1, §2

[11] = biological target: T2, human ROR-1 endogenously expressed on …; test: flow cytometry (cellular binning): titration of the antibody on MDA-MB-468 cells, fluorescently labeled secondary antibody, % Top MFI; remark: listed apart in the source
Description: as §1, §2

[12] = biological target: T2, human ROR-1 endogenously expressed on …; test: flow cytometry competition (cellular binning) on MDA-MB-468 cells: cells coated with titrated ATX-P-875, then a saturating dose of the labeled competitor 4A5-PE, whose signal is plotted in % Top MFI
Description: as §1, §2

T3 sequence (Q9Z139 30-403 limits assumed): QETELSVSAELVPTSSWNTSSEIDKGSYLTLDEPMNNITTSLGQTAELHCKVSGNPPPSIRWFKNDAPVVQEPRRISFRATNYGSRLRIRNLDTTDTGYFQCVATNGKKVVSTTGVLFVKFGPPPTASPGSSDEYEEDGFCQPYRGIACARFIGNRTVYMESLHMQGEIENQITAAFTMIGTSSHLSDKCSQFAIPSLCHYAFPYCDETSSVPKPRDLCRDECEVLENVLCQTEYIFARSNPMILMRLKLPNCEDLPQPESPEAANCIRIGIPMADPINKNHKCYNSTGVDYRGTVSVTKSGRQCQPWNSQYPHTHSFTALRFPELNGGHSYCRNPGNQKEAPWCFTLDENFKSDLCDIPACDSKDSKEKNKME

Row | Binder | Kd [1] | JeKo-1 (%) cellular internalization [2] | MDA-MB-468(%) cellular internalization [2] | Kd [3] | koff [3] | kon [3] | EC50 (read off the curve) [4] | EC50 (read off the curve) [5] | ROR-1 receptor internalization on JeKo-1 and MDA-MB-468 cells (reduction of surface antibody over 4 hours, flow cytometry) [6] | Kd [7] | koff [7] | kon [7] | EC50 (read off the curve) [8] | EC50 (read off the curve) [9] | IC50 (read off the curve) [10] | EC50 (read off the curve) [11] | IC50 (read off the curve) [12]
1 | 4A5 (antibody, V domains shown) VH: EVKLVESGGGLVKPGGSLKLSCAASGFTFSSYAMSWVRQIPEKRLEWVASISRGGTTYYPDSVKGRFTISRDNVRNILYLQMSSLRSEDTAMYYCGRYDYDGYYAMDYWGQGTSVTVSS VL: DIKMTQSPSSMYASLGERVTITCKASPDINSYLSWFQQKPGKSPKTLIYRANRLVDGVPSRFSGGGSGQDYSLTINSLEYEDMGIYYCLQYDEFPYTFGGGTKLEMK | 2.81 nM | – | – | – | – | – | – | – | – | – | – | – | – | – | – | – | –
2 | ATX-P-885 (antibody, V domains shown) VH: QVQLQQWGAGLLKPSETLSLTCAVYGGSFSGYYWSWIRQPPGKGLEWIGEINHSGSTNYNPSLKSRVTISVDTSKNQFSLKLSSVTAADTAVYYCAREGVYEDYWGQGTLVTVSS VL: EIVLTQSPATLSLSPGERATLSCRASQSVSNYLAWYQQKPGQAPRLLIYDAYNRATGIPARFSGSGSGTDFTLTISSLEPEDFAVYYCQQRSNWPLTFGQGTRLEIKR | – | 75% | 89% | 10.9 nM | 0.00295 s⁻¹ | 270000 M⁻¹ s⁻¹ | – | ~0.3 nM | ≥ 75% | 45.3 nM | 0.00132 s⁻¹ | 29200 M⁻¹ s⁻¹ | ~3 nM | ~2 nM | ~3 nM | – | –

Next, values leading:

Row | Kd [1] | JeKo-1 (%) cellular internalization [2] | MDA-MB-468(%) cellular internalization [2] | Kd [3] | koff [3] | kon [3] | EC50 (read off the curve) [4] | EC50 (read off the curve) [5] | ROR-1 receptor internalization on JeKo-1 and MDA-MB-468 cells (reduction of surface antibody over 4 hours, flow cytometry) [6] | Kd [7] | koff [7] | kon [7] | EC50 (read off the curve) [8] | EC50 (read off the curve) [9] | IC50 (read off the curve) [10] | EC50 (read off the curve) [11] | IC50 (read off the curve) [12] | Binder
3 | – | 75% | 80% | 4.69 nM | 0.00591 s⁻¹ | 1.26e+06 M⁻¹ s⁻¹ | ~0.02 nM | ~0.1 nM | – | – | – | – | – | – | – | – | – | UC-961 (ATX-P-453) (antibody, V domains shown) VH: QVQLQESGPGLVKPSQTLSLTCTVSGYAFTAYNIHWVRQAPGQGLEWMGSFDPYDGGSSYNQKFKDRLTISKDTSKNQVVLTMTNMDPVDTATYYCARGWYYFDYWGHGTLVTVSS VL: DIVMTQTPLSLPVTPGEPASISCRASKSISKYLAWYQQKPGQAPRLLIYSGSTLQSGIPPRFSGSGYGTDFTLTINNIESEDAAYYFCQQHDESPYTFGEGTKVEIK
4 | – | 75% | 89% | – | – | – | – | – | ≥ 75% | – | – | – | ~0.9 nM | – | – | ~0.5 nM | ~0.7 nM | ATX-P-875 (antibody, V domains shown) VH: not shown VL: DIQMTQSPSSLSASVGDRVTITCRASQSISSYLNWYQQKPGKAPKLLIYAASSLQSGVPSRFSGSGSGTDFTLTISSLQPEDFATYYCQQYDNLPITFGQGTRLEIKR
